Key:
[1] = molecular target: T1, HLA-A2 (human); experiment: immunofluorescence staining of ovarian tumor OVA-16
T1 construct: allele written as A*02:01 on that basis; also called HLA-A2.1; A2.1

[2] = molecular target: T1, HLA-A2; experiment: immunofluorescence staining of ovarian tumor OVA-14
[3] = molecular target: T1, HLA-A2; experiment: HLA-A2 stabilization on T2 cells
[4] = molecular target: T1, HLA-A2; experiment: HLA-A2 stabilization on T2 cells, against D113
[5] = molecular target: certain MHC Class I heavy chains other than HLA-A2; experiment: cell-based or functional assay

mAb MA2.1 (anti-HLA-A2) (antibody) showed a % HLA-A2 positive cells [1] of 85.3%, a mean fluorescence [1] of 42 and a % HLA-A2 positive cells [2] of 92.1%. For the same molecule, the mean fluorescence [2] was 49.

ELVSEFSRV (Synthetic analog of C85) [C84 (HER-2:971-979(Val))]: binds [3].

RLLYQGCQVV (Synthetic analog) [D114 = HER-2:47-56(48H->L)]: binds [4].

For RFRELVSEFSRMAR [C43 (HER-2:968-981)], the inhibition of lysis of OVA-1 tumor (HLA-A2 negative) by autologous CTL-1 after pre-pulsing with peptide [5] was 45%.

RFRELIIEFSRMAR [C44 (analog of HER-2:968-981, VS->II)] was tested, and the inhibition of lysis of OVA-1 tumor (HLA-A2 negative) by autologous CTL-1 after pre-pulsing with peptide [5] was 25%.

ELVSEVSKV [C81 (analog of HER-2:971-979, F->V, RM->KV)]: binds [3].

GLYQGCQVV (Synthetic analog) [D115 = HER-2:48-56(48H->G)]: binds [4].

Source: patent US20030027766A1 (University of Texas, published 2003)
